Measurements as given in patent US12655208 (PARAGON THERAPEUTICS, dated 2026).

Legend:
Recombinant Human IL-23 [1] = target: T1, Recombinant Human IL-23 (human, UniProt Q9NPF7 20-189; P29460 23-328); experiment: cell-based or functional assay
T1 sequence (looked up) 1: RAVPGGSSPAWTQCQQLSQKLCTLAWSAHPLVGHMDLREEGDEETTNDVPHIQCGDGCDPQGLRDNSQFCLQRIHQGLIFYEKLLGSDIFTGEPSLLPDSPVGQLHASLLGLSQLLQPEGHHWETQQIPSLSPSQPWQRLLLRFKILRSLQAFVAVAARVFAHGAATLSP
T1 sequence (looked up) 2: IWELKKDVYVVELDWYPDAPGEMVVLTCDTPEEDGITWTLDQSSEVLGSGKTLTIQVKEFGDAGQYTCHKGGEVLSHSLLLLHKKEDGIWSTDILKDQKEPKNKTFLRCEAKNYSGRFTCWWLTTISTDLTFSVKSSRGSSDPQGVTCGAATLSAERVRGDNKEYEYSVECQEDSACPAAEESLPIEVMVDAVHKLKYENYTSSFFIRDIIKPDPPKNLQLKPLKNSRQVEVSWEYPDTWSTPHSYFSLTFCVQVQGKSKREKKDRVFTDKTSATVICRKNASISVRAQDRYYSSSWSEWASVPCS

Recombinant Human IL-23 [2] = target: T1, Recombinant Human IL-23; experiment: cell-based or functional assay; remark: listed apart in the source
Recombinant Human IL-23 [3] = target: T1, Recombinant Human IL-23; experiment: SPR (Biacore 8K), mAb captured on anti-human IgG, hIL-23 as analyte, 25 °C
Protocol: Binding affinities (K_D) of antibodies to human IL-23 (generated as described in Examples 1-3) were determined through surface plasmon resonance (SPR) using a BIA-CORE™ 8K SPR system (Cytiva). […] Anti-IL23 mAb constructs (diluted to 2 µg/mL) were captured onto flow cell 2 (active) for 60 sec at a flow rate of 10 µL/min. Recombinant Human IL-23 was prepared at concentrations of 0, 1.23, 3.7, 11.11, 33.33, 100 nM and injected over flow cell 1 (reference) and flow cell 2 (active) for 180 sec at a flow rate of 50 µL/min. Samples were injected in a multi-cycle manner over freshly captured mAb, by regenerating the capture surfaces with injection of 10 mM glycine, pH 1.5 for 30 sec at a flow rate of 30 µL/min. A 1:1 kinetic binding model was utilized to determine the apparent association (ka) and dissociation rate constants (kd). Their ratio provides the apparent equilibrium dissociation constant or affinity constant (K_D=kd/ka).

Recombinant Human IL-23 [4] = target: T1, Recombinant Human IL-23; experiment: cell-based or functional assay; remark: listed apart in the source

B1: Reference Antibody 1 (antibody, human IgG1, kappa, L234A L235A, V domains shown)
VH: QVQLVQSGAEVKKPGSSVKVSCKASGYTFTDQTIHWMRQAPGQGLEWIGYIYPRDDSPKYNENFKGKVTITADKSTSTAYMELSSLRSEDTAVYYCAIPDRSGYAWFIYWGQGTLVTVSS
VL: DIQMTQSPSSLSASVGDRVTITCKASRDVAIAVAWYQQKPGKVPKLLIYWASTRHTGVPSRFSGSGSRTDFTLTISSLQPEDVADYFCHQYSSYPFTFGSGTKLEIKR
notes: Human IgG1 with LALA; also called parental anti-human IL-23p19 antibody
Relative IC50, inhibition of IL-23-induced phosphorylation of STAT3 in DB cells (pSTAT3 ELISA) (Recombinant Human IL-23 [1]): 1 relative to Reference Antibody 1
Relative IC50, inhibition of IL-23-induced STAT3 activation (luciferase reporter, HEK 293F IL-23R+/IL-12Rβ1+) (Recombinant Human IL-23 [2]): 1 relative to Reference Antibody 1
koff (Recombinant Human IL-23 [3]): < 1e-06 s⁻¹
kon (Recombinant Human IL-23 [3]): 167000 M⁻¹ s⁻¹

B2: Clone MAb001 (antibody, human IgG1, kappa, L234A L235A, V domains shown)
VH: QVQLVQSGAEVKKPGSSVKVSCKASGYTFTTQTLHWMRQAPGQGLEWIGYIYPRDGSTKYNENFKGKVTITADKSTSTAYMELSSLRSEDTAVYYCAIPDRSGYAWFQHWGQGTLVTVSS
VL: DIQMTQSPSSLSASVGDRVTITCKASRDVAIAVAWYQQKPGKVPKLLIYWASTRHTGVPSRFSGSGSRTDFTLTISSLQPEDVADYFCHQYSSYPFTFGSGTKLEIKR
Relative IC50, inhibition of IL-23-induced phosphorylation of STAT3 in DB cells (pSTAT3 ELISA) (Recombinant Human IL-23 [1]): 0.573 relative to Reference Antibody 1
Relative IC50, inhibition of IL-23-induced STAT3 activation (luciferase reporter, HEK 293F IL-23R+/IL-12Rβ1+) (Recombinant Human IL-23 [2]): 0.612 relative to Reference Antibody 1
koff (Recombinant Human IL-23 [3]): < 1e-06 s⁻¹
kon (Recombinant Human IL-23 [3]): 151000 M⁻¹ s⁻¹

B3: Clone MAb003 (antibody, V domains shown)
VH: QVQLVQSGAEVKKPGSSVKVSCKASGYTFTSQTMHWMRQAPGQGLEWIGYIYPRDDYPKYNDNFKGKVTITADKSTSTAYMELSSLRSEDTAVYYCAIPDRSGYAWFIHWGQGTLVTVSS
VL: DIQMTQSPSSLSASVGDRVTITCKASRDVAIAVAWYQQKPGKVPKLLIYWASTRHTGVPSRFSGSGSRTDFTLTISSLQPEDVADYFCHQYSSYPFTFGSGTKLEIKR
Relative IC50, inhibition of IL-23-induced phosphorylation of STAT3 in DB cells (pSTAT3 ELISA) (Recombinant Human IL-23 [1]): 0.799 relative to Reference Antibody 1
Relative IC50, inhibition of IL-23-induced STAT3 activation (luciferase reporter, HEK 293F IL-23R+/IL-12Rβ1+) (Recombinant Human IL-23 [2]): 0.868 relative to Reference Antibody 1
koff (Recombinant Human IL-23 [3]): < 1e-06 s⁻¹
kon (Recombinant Human IL-23 [3]): 164000 M⁻¹ s⁻¹

B4: Clone MAb002 (antibody, human IgG1, kappa, L234A L235A, V domains shown)
VH: EVQLLESGGGLVQPGGSLRLSCAASGYTFTDQTIHWVRQAPGKGLEWIGYIYPRDDSPKYNENFKGRATLSADNSKNTAYLQMNSLRAEDTAVYYCAIPDRSGYAWFIYWGQGTTVTVSS
VL: EIVMTQSPATLSVSPGERATLSCKASRDVAIAVAWYQQKPGQAPRLLLFWASTRHTGIPARFSGSGSRTEFTLTISSLQSEDFAVYYCHQYSSYPFTFGGGTKVEIKR
notes: Described as an extended half-life humanized IgG1 monoclonal antibody
Relative IC50, inhibition of IL-23-induced STAT3 activation (luciferase reporter, HEK 293F IL-23R+/IL-12Rβ1+) (Recombinant Human IL-23 [2]): 0.64 relative to Reference Antibody 1
koff (Recombinant Human IL-23 [3]): < 1e-06 s⁻¹
kon (Recombinant Human IL-23 [3]): 266000 M⁻¹ s⁻¹
IC50, inhibition of STAT3 activity and phosphorylation (Recombinant Human IL-23 [4]): < 1 nM

B5: Clone MAb004 (antibody, human IgG1, V domains shown)
VH: QVQLVQSGAEVKKPGSSVKVSCKASGYTFTAQTMHWMRQAPGQGLEWIGYIYPRDGSTKYNENFKGKVTITADKSTSTAYMELSSLRSEDTAVYYCAIPDRSGYAWFIVWGQGTLVTVSS
VL: EIVMTQSPATLSVSPGERATLSCKASRDVAIAVAWYQQKPGQAPRLLLFWASTRHTGIPARFSGSGSRTEFTLTISSLQSEDFAVYYCHQYSSYPFTFGGGTKVEIK
notes: Tested in full antibody format; The printed constant part is human IgG1 with LALA/YTE
Relative IC50, inhibition of IL-23-induced STAT3 activation (luciferase reporter, HEK 293F IL-23R+/IL-12Rβ1+) (Recombinant Human IL-23 [2]): 0.409 relative to Reference Antibody 1
koff (Recombinant Human IL-23 [3]): < 1e-06 s⁻¹
kon (Recombinant Human IL-23 [3]): 247000 M⁻¹ s⁻¹
